These results are taken from patent US20030077318A1.

What is called Kd is the free concentration of one partner at which half of the binding sites on the other are occupied at equilibrium, for simple one-to-one binding.

In the assay the target is soluble H-2K^b (K^bsol), heterodimer of truncated K^b heavy chain and murine β-2 microglobulin, purified empty from Drosophila cells (murine) (UniProt P01901). Put plainly: competitive RIA against [^125I]VSV-8 on K^bsol, P30 gel filtration, 23° C. On the technique in general: Size exclusion chromatography separates by hydrodynamic size, large species first.
Consider OVA-8 (peptide), for which the Kd was determined as 4.1 nM.

OVA-9C (peptide) had a Kd of 11 nM.

OVA-10C (peptide) showed a dissociation constant Kd of 14 nM.

On to OVA-10N (peptide), for which the Kd was found to be 280 nM.
